A word on the Ki: it is the equilibrium dissociation constant of an inhibitor or competing ligand from its target.

The target of assay [1] is T1, SurA-WT (E. coli, UniProt P0ABZ6 21-428).
T1 chain: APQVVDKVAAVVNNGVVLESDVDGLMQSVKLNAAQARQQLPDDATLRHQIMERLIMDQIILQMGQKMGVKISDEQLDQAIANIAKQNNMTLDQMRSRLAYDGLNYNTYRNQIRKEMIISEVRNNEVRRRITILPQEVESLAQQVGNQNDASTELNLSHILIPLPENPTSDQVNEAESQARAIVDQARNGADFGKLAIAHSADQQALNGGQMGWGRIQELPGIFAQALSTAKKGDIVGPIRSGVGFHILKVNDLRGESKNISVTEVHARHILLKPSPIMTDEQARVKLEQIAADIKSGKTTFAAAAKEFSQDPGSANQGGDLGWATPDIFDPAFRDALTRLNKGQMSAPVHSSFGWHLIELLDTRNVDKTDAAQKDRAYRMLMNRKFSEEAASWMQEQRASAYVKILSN
Put plainly: ITC. (In general: In ITC the heat of successive injections is recorded.)

The next assay deals with T2, OmpF (Escherichia coli, UniProt P02931).
T2 chain: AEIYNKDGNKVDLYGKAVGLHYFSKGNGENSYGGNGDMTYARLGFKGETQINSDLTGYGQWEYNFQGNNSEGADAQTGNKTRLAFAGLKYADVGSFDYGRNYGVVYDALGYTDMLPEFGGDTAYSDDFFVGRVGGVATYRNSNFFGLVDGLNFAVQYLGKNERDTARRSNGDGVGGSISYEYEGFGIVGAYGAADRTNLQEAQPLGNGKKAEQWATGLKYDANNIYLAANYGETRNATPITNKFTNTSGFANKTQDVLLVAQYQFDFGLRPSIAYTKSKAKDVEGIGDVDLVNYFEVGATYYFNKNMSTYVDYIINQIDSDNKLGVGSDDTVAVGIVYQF

Assay [2] concerns the target T3, tOmpA transmembrane domain (Escherichia coli, UniProt P0A910).
T3 chain: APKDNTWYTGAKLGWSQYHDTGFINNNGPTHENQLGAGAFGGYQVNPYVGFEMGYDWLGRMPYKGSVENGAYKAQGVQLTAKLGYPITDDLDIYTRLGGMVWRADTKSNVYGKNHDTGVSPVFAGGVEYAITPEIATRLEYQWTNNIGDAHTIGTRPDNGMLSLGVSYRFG

The target in assay [3] is T1, SurA-WT. As to the kind of experiment: MST; apparent Kd, Hill fit, 0.8 M urea.
In the next assay the target is SurA-core (E. coli, UniProt P0ABZ6 21-428, deleting codons for residues 172–389). Put plainly: MST; apparent Kd, Hill fit, 0.8 M urea.

The molecule WEYIPNV [WEYIPNV peptide] came in with a Kd in the assay with SurA-WT [1] of 5.4 µM.

B1: SurA (protein)
chain: T1 chain
With B1, affinity in the assay with OmpF was put at a Ki of 5.2 µM. This molecule displayed a Kd in assay [2] of 3.7 µM.

B2: Cys-OmpX labelled with Alexa Fluor 488 (natural protein)
chain: MGSCATSTVTGGYAQSDAQGQMNKMGGFNLKYRYEEDNSPLGVIGSFTYTEKSRTASSGDYNKNQYYGITAGPAYRINDWASIYGVVGVGYGKFQTTEYPTYKHDTSDYGFSYGAGLQFNPMENVALDFSYEQSRIRSVDVGTWIAGVGYRF
modifications: Alexa Fluor 488 on the N-terminal Cys
Turning to B2, the Kd was determined as 1.3 µM with SurA-WT [3] and 5.1 µM with SurA-core.

The record behind these values is PMC11401910 (2024).
